According to patent publication US20090149389A1 (PURDUE RESEARCH FOUNDATION, published 2009):

What was measured:
Assay in all cases: cell-based or functional assay
Abl (h) = Abl (h) (human (h), UniProt P00519 27-1130, limits assumed)
ASK1 (h) = ASK1 (h) (human (h), UniProt Q99683 649-946, limits assumed)
Aurora-A (h) = target: T1, Aurora-A (h) (human (h), UniProt O14965 1-403)
T1 sequence (looked up): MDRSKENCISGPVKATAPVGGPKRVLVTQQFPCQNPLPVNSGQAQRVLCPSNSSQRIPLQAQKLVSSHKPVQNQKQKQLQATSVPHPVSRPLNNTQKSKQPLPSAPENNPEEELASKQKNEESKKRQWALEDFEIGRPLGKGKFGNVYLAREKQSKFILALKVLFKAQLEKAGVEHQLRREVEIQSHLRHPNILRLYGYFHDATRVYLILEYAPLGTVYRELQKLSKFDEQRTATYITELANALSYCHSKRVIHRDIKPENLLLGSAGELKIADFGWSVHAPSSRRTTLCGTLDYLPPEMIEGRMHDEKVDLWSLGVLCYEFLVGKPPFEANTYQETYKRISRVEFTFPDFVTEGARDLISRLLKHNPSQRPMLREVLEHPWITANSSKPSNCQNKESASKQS

CaMKI (h) = CaMKI (h) (human (h), UniProt Q14012 1-370, limits assumed)
CKIB (h) = CKIB (h) (human (h))
CK2 (h) = CK2 (h) (human (h), UniProt P68400 1-391)
DYRK2 (h) = target: T2, DYRK2 (h) (human (h), UniProt Q92630 1-601, limits assumed)
T2 sequence (looked up): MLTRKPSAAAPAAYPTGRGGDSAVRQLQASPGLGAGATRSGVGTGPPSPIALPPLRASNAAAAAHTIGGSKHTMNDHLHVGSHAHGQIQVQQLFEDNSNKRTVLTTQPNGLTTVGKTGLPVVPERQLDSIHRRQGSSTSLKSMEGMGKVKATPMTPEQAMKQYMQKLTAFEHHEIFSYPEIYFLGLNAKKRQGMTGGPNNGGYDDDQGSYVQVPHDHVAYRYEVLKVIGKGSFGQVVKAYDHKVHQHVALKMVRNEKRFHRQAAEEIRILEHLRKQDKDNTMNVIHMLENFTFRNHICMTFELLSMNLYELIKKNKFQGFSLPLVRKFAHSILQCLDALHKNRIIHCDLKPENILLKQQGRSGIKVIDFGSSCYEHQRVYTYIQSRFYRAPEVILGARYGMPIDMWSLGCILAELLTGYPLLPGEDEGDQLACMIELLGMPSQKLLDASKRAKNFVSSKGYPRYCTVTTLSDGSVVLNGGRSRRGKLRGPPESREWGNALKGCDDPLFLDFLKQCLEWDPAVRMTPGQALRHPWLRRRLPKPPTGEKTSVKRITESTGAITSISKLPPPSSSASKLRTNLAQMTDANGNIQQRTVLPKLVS

EphA2 (h) = target: T3, EphA2 (h) (human (h), UniProt P29317 591-976, limits assumed)
T3 sequence (looked up): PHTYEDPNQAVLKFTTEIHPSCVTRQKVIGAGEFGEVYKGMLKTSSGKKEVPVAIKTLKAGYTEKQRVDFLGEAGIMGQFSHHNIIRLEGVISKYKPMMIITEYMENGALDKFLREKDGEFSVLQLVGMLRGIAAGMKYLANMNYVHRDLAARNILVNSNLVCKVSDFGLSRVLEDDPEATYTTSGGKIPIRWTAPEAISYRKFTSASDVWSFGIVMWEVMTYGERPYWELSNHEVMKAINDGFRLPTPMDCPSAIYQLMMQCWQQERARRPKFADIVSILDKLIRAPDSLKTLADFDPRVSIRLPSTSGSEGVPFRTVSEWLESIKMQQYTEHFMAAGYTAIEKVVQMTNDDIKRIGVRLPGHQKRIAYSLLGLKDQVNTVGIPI

GSK3β (h) = GSK3β (h) (human (h), UniProt P49841 1-420)
JAK3 (h) = JAK3 (h) (human (h), UniProt P52333 781-1124, limits assumed)
Lck (h) = Lck (h) (human (h), UniProt P06239 1-509)
MAPKAP-K3 (h) = MAPKAP-K3 (h) (human (h), UniProt Q16644 1-382, limits assumed)
MKK6 (h) = target: T4, MKK6 (h) (human (h), UniProt P52564 1-334, limits assumed)
T4 sequence (looked up): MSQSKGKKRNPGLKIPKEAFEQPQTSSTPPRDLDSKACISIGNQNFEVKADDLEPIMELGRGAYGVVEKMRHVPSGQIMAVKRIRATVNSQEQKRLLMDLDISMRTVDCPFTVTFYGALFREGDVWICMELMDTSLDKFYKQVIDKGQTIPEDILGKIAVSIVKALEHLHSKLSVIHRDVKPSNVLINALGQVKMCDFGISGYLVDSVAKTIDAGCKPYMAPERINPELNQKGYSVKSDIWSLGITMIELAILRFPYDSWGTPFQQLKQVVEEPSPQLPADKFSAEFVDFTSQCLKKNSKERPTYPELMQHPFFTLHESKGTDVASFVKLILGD

PDGFRβ (h) = PDGFRβ (h) (human (h), UniProt P09619 558-1106, limits assumed)
PKA (h) = PKA (h) (human (h), UniProt P17612 1-351)
PKB β (h) = PKB β (h) (human (h), UniProt P31751 1-481, limits assumed)
PKCδ (h) = PKCδ (h) (human (h), UniProt Q05655 1-676)
ROCK-1 (h) = ROCK-1 (h) (human (h), UniProt Q13464 17-535, limits assumed)
SAPK2 a (h) = SAPK2 a (h) (human (h), UniProt Q16539 1-360)
Syk (h) = Syk (h) (human (h), UniProt P43405 1-635)

Sequence of CaMKI (h) (Q14012 whole entry): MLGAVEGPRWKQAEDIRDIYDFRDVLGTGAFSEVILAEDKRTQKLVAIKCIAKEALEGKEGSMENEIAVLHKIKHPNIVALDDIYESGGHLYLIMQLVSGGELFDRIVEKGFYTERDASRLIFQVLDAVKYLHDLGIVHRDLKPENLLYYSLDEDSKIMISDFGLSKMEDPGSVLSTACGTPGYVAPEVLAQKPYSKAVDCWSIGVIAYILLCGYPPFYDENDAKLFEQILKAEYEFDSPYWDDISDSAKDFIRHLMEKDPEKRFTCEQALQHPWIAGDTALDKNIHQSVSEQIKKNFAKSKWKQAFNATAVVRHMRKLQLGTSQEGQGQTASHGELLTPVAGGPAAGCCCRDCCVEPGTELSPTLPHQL
Sequence of GSK3β (h) (P49841 whole entry): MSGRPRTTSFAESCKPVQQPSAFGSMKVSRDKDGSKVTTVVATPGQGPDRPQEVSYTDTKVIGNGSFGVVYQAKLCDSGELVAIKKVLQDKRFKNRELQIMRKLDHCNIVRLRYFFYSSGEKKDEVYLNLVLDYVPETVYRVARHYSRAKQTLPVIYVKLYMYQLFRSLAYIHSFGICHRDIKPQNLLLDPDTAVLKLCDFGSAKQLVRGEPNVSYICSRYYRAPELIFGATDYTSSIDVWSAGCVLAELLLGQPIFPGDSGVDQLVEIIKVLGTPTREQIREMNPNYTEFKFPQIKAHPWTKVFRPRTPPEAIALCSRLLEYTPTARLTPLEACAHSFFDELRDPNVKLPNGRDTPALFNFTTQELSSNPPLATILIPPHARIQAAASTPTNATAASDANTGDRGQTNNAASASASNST
Sequence of CK2 (h) (P68400 whole entry): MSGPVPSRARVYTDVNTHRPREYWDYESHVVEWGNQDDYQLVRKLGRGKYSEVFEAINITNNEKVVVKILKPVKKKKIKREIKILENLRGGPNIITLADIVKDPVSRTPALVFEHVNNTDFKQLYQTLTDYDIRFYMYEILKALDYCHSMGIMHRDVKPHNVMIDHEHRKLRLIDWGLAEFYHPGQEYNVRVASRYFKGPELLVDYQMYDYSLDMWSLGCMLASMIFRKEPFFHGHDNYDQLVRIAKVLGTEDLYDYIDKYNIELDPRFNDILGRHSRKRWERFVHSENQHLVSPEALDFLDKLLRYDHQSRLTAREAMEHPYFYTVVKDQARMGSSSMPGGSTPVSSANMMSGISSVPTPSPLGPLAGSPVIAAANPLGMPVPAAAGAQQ
Sequence of MAPKAP-K3 (h) (Q16644 whole entry): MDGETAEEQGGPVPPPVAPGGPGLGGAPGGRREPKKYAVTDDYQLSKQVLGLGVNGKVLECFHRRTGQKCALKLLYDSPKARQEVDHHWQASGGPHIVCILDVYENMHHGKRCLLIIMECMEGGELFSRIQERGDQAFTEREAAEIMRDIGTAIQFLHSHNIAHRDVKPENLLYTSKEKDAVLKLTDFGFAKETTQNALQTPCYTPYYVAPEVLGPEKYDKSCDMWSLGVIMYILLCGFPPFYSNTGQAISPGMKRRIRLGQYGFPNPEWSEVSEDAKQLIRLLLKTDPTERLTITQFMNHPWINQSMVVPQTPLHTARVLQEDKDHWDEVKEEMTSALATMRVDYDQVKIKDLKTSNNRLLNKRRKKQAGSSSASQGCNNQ
Sequence of JAK3 (h) (P52333 781-1124 limits assumed): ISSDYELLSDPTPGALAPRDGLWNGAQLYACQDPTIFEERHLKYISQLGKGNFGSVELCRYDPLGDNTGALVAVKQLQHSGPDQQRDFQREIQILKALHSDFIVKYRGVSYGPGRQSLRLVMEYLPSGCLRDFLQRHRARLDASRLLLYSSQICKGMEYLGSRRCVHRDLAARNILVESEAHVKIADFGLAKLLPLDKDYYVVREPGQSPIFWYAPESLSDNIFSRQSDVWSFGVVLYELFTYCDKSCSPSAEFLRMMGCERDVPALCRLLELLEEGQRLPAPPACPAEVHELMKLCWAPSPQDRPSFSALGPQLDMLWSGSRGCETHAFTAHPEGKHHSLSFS
Sequence of Abl (h) (P00519 27-1130 limits assumed): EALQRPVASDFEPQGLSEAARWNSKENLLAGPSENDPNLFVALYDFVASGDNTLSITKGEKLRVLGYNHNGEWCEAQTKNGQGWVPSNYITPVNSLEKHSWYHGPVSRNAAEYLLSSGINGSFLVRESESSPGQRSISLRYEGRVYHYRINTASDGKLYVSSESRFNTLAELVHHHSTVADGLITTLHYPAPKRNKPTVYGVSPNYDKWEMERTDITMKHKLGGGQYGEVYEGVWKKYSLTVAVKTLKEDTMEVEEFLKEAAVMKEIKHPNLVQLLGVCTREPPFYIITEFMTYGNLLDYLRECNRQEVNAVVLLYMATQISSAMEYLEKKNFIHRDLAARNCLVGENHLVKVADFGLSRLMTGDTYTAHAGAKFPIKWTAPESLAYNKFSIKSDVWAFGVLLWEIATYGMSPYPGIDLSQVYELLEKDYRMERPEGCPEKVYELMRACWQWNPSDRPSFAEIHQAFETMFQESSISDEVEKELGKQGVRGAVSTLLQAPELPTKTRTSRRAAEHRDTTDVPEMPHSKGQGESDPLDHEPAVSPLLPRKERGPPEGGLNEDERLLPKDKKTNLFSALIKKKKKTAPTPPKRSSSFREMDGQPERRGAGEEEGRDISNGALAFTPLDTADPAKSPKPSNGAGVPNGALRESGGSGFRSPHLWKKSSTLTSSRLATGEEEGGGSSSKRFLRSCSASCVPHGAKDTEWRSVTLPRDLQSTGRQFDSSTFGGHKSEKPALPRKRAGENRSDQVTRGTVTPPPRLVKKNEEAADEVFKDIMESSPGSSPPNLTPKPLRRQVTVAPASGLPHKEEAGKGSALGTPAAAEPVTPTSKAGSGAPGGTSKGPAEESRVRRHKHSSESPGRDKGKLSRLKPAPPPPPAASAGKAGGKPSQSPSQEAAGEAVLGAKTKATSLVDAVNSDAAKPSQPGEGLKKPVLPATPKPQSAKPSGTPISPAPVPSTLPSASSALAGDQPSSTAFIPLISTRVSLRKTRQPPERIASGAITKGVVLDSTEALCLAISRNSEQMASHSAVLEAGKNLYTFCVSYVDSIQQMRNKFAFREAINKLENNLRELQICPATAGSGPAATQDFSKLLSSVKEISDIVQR
Sequence of ASK1 (h) (Q99683 649-946 limits assumed): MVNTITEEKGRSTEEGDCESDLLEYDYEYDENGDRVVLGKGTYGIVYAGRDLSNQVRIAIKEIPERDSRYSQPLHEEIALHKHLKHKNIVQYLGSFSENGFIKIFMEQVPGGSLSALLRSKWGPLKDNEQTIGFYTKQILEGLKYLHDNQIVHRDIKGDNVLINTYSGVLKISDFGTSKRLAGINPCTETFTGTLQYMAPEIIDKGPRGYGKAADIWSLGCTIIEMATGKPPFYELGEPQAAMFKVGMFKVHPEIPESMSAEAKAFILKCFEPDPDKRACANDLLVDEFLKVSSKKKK
Sequence of PKB β (h) (P31751 whole entry): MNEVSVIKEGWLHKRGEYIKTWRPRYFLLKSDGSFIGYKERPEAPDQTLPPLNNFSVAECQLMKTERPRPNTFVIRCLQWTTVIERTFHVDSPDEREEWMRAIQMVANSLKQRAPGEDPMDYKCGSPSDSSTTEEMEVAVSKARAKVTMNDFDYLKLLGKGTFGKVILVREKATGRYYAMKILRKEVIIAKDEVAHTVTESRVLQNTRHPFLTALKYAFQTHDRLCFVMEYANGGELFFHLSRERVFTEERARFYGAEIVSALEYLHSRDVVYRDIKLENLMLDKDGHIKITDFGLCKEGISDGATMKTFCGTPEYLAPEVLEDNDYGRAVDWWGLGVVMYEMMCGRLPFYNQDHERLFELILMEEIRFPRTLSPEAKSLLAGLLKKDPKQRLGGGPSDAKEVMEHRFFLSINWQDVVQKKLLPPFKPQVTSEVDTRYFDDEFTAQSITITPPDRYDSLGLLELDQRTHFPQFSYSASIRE
Sequence of ROCK-1 (h) (Q13464 17-535 limits assumed): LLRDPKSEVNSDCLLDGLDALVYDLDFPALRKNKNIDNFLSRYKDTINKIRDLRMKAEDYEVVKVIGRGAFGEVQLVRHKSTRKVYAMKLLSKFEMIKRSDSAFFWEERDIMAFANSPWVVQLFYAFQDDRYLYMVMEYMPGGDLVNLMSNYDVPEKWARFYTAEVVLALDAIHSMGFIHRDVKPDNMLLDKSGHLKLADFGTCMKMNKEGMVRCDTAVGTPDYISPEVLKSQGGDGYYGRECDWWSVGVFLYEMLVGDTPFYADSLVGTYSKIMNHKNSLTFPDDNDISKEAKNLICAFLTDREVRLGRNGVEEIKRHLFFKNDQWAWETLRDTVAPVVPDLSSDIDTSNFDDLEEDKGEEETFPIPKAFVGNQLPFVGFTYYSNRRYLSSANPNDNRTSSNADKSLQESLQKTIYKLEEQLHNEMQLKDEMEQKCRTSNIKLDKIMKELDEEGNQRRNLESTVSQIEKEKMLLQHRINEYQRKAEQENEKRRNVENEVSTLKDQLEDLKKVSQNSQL
Sequence of PDGFRβ (h) (P09619 558-1106 limits assumed): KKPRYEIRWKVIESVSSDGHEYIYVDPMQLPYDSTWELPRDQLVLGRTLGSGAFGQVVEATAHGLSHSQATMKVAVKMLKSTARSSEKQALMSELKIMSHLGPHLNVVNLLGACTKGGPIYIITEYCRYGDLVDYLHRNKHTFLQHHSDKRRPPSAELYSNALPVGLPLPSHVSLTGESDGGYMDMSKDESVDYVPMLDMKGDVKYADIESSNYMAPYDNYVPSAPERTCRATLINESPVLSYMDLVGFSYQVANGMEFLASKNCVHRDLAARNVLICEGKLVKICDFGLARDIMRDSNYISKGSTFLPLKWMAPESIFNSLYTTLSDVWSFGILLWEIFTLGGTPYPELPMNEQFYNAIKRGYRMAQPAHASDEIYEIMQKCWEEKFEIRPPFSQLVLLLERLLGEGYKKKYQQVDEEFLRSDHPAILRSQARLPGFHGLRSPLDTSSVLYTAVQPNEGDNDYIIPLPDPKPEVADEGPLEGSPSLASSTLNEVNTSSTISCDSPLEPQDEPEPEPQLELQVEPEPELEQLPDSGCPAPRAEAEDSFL

In the case of FAKLAARLYRKALARQLGVAA, the “Profile-1 @ = 100 µm (kinase profiler assay)” value (from here on “Profile-1 @ = 100 µm”) (Abl (h)) is reported as 41, the “Profile-1 @ = 100 µm” value (ASK1 (h)) is reported as 53 and the “Profile-1 @ = 100 µm” value (Aurora-A (h)) is reported as 65. For the same binder, the “Profile-1 @ = 100 µm” value (CaMKI (h)) was 0, the “Profile-1 @ = 100 µm” value (CKIB (h)) was 99 and the “Profile-1 @ = 100 µm” value (CK2 (h)) was 80. The “Profile-1 @ = 100 µm” value (DYRK2 (h)) was -11, the “Profile-1 @ = 100 µm” value (EphA2 (h)) was 32 and the “Profile-1 @ = 100 µm” value (GSK3β (h)) was 188. The “Profile-1 @ = 100 µm” value (JAK3 (h)) was 102, the “Profile-1 @ = 100 µm” value (Lck (h)) was 493 and the “Profile-1 @ = 100 µm” value (MAPKAP-K3 (h)) was 10. The “Profile-1 @ = 100 µm” value (MKK6 (h)) was 42, the “Profile-1 @ = 100 µm” value (PDGFRβ (h)) was 92 and the “Profile-1 @ = 100 µm” value (PKA (h)) was 76. The “Profile-1 @ = 100 µm” value (PKB β (h)) was 16, the “Profile-1 @ = 100 µm” value (PKCδ (h)) was 40 and the “Profile-1 @ = 100 µm” value (ROCK-1 (h)) was 25. For the same binder, the “Profile-1 @ = 100 µm” value (SAPK2 a (h)) was 30 and the “Profile-1 @ = 100 µm” value (Syk (h)) was 38.
